Experimental data taken from publication PMC9482650, “Quantitative fragmentomics allow affinity mapping of interactomes” (Nature Communications, 2022).
Each block holds one binder with its values, some of them ahead of it.

Columns and labels:
Assay in all cases: holdup assay
Set-up in all cases: key: below the threshold = too weak to quantify, mostly under pKd 3.1 to 4
SYNJ2BP, P57105 = target: T1, SYNJ2BP, P57105; conditions: plain residues with an end cap or a label only (N-terminal biotin on a linker: ttds)
T1 sequence (P57105 8-110, limits assumed, looked up): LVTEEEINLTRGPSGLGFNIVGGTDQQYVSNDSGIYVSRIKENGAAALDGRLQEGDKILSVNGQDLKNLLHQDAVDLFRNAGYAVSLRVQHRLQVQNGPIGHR

ARHGAP21, Q5T5U3 = target: T2, ARHGAP21, Q5T5U3; conditions: plain residues with an end cap or a label only (N-terminal biotin on a linker: ttds)
T2 sequence (Q5T5U3 45-169, limits assumed, looked up): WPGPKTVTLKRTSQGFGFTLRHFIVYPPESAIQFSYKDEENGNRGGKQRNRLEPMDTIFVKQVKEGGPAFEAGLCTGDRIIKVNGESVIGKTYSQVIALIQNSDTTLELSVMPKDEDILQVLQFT

LRRC7, Q96NW7 = target: T3, LRRC7, Q96NW7; conditions: plain residues with an end cap or a label only (N-terminal biotin on a linker: ttds)
T3 sequence (Q96NW7 1440-1537, limits assumed, looked up): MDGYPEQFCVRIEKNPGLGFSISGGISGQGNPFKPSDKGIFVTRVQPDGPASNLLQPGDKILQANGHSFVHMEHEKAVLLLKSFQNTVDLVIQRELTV

APBA1_2, Q02410 = target: T4, APBA1_2, Q02410; conditions: plain residues with an end cap or a label only (N-terminal biotin on a linker: ttds)
T4 sequence (Q02410 742-832, limits assumed, looked up): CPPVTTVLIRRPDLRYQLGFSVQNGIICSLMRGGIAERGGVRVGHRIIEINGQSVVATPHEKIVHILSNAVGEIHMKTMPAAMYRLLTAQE

FRMPD3, Q5JV73 = conditions: plain residues with an end cap or a label only (N-terminal biotin on a linker: ttds)
Chain of FRMPD3, Q5JV73 (Q5JV73 12-100): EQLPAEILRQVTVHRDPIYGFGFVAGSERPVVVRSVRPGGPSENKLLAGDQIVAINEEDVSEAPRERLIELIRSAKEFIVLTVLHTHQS

GIPC2, Q8TF65 = conditions: plain residues with an end cap or a label only (N-terminal biotin on a linker: ttds)
Chain of GIPC2, Q8TF65 (Q8TF65 112-203): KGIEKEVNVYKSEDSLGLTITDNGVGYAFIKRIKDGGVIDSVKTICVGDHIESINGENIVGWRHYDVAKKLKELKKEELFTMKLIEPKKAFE

ARHGEF11, O15085 = target: T5, ARHGEF11, O15085
T5 sequence (O15085 42-136, limits assumed, looked up): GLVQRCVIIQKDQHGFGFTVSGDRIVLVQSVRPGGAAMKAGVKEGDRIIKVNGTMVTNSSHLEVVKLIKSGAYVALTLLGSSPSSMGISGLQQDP

GRID2IP_2, A4D2P6 = conditions: plain residues with an end cap or a label only (N-terminal biotin on a linker: ttds)
Chain of GRID2IP_2, A4D2P6 (A4D2P6 272-370): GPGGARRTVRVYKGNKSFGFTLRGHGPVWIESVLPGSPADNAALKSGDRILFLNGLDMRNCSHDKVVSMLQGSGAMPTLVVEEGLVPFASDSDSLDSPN

SNTA1, Q13424 = target: T6, SNTA1, Q13424
T6 sequence (Q13424 82-180, limits assumed, looked up): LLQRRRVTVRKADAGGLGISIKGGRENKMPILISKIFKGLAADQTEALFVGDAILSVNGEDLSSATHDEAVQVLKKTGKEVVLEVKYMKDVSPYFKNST

PARD3B_1, Q8TEW8 = target: T7, PARD3B_1, Q8TEW8; conditions: plain residues with an end cap or a label only (N-terminal biotin on a linker: ttds)
T7 sequence (Q8TEW8 196-299, limits assumed, looked up): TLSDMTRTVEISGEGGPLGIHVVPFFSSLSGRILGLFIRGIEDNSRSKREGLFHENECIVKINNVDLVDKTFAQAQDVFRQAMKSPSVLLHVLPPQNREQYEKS

Inadl_1, Q8NI35 = conditions: plain residues with an end cap or a label only (N-terminal biotin on a linker: ttds)
Chain of Inadl_1, Q8NI35 (Q8NI35 113-229): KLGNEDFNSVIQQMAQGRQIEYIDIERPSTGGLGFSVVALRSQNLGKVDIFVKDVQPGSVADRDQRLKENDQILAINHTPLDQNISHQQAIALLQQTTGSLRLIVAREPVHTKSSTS

PDZD2_2, O15018 = target: T8, PDZD2_2, O15018; conditions: plain residues with an end cap or a label only (N-terminal biotin on a linker: ttds)
T8 sequence (O15018 329-429, limits assumed, looked up): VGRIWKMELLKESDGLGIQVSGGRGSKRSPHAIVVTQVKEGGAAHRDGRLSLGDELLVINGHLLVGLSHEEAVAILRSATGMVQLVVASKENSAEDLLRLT

Inadl_9, Q8NI35 = conditions: plain residues with an end cap or a label only (N-terminal biotin on a linker: ado-ado)
Chain of Inadl_9, Q8NI35 (Q8NI35 1530-1615): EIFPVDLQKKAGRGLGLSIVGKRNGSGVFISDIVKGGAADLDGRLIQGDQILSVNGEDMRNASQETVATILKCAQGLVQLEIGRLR

DLG2_2, Q15700 = conditions: plain residues with an end cap or a label only (N-terminal biotin on a linker: ado-ado)
Chain of DLG2_2, Q15700 (Q15700 189-283): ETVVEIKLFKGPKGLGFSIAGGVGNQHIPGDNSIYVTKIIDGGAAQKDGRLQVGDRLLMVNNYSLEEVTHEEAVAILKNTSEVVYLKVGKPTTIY

SNX27, Q96L92 = conditions: plain residues with an end cap or a label only (N-terminal biotin on a linker: ado-ado)
DLG1_3, Q12959 = conditions: plain residues with an end cap or a label only (N-terminal biotin on a linker: ado-ado)
Chain of DLG1_3, Q12959 (Q12959 457-571): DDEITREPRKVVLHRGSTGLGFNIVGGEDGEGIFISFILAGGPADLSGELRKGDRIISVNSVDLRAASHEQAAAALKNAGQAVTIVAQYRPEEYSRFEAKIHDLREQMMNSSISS

TIAM2, Q8IVF5 = target: T9, TIAM2, Q8IVF5; conditions: plain residues with an end cap or a label only (N-terminal biotin on a linker: ado-ado)
T9 sequence (Q8IVF5 885-986, limits assumed, looked up): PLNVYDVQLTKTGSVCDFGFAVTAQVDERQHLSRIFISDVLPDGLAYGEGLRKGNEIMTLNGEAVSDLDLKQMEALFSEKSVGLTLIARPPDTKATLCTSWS

PDZRN4_1, Q6ZMN7 = conditions: plain residues with an end cap or a label only (N-terminal biotin on a linker: ado-ado)
Chain of PDZRN4_1, Q6ZMN7 (Q6ZMN7 213-318): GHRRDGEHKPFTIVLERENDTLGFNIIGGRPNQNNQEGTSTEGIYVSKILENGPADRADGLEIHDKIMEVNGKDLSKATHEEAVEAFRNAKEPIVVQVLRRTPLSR

TJP1_3, Q07157 = conditions: plain residues with an end cap or a label only (N-terminal biotin on a linker: ado-ado)
Chain of TJP1_3, Q07157 (Q07157 416-512): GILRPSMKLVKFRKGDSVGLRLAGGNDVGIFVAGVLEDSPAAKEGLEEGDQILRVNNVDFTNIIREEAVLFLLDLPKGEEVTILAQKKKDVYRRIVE

TX1BP3, O14907 = target: T10, TX1BP3, O14907; conditions: plain residues with an end cap or a label only (N-terminal biotin on a linker: ado-ado)
T10 sequence (O14907 10-122, limits assumed, looked up): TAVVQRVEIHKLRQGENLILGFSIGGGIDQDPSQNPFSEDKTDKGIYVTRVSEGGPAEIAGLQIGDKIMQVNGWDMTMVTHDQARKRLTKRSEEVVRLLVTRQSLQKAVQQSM

IL16_4, Q14005 = conditions: plain residues with an end cap or a label only (N-terminal biotin on a linker: ado-ado)
Chain of IL16_4, Q14005 (Q14005 1229-1329): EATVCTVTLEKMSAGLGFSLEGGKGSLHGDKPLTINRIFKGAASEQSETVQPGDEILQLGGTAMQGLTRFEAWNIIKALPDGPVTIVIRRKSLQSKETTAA

MAST2, Q6P0Q8 = conditions: plain residues with an end cap or a label only (N-terminal biotin on a linker: ado-ado)
Chain of MAST2, Q6P0Q8 (Q6P0Q8 1099-1202): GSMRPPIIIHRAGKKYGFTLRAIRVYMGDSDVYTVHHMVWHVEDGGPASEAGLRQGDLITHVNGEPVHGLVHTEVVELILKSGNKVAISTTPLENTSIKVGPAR

DLG3_1, Q92796 = target: T11, DLG3_1, Q92796; conditions: plain residues with an end cap or a label only (N-terminal biotin on a linker: ado-ado)
T11 sequence (Q92796 125-227, limits assumed, looked up): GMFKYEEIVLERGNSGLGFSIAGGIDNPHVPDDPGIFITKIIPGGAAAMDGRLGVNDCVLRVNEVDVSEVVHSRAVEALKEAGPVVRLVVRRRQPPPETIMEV

Inadl_8, Q8NI35 = conditions: plain residues with an end cap or a label only (N-terminal biotin on a linker: ado-ado)
Chain of Inadl_8, Q8NI35 (Q8NI35 1425-1530): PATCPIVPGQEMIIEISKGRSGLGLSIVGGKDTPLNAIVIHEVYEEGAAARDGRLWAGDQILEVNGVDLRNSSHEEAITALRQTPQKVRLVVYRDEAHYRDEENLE

HTRA2, O43464 = conditions: plain residues with an end cap or a label only (N-terminal biotin on a linker: ado-ado)
Chain of HTRA2, O43464 (O43464 355-458): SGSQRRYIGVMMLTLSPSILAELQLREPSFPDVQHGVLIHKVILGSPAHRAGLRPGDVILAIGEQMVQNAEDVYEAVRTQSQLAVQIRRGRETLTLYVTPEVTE

Inadl_4, Q8NI35 = conditions: plain residues with an end cap or a label only (N-terminal biotin on a linker: ado-ado)
Chain of Inadl_4, Q8NI35 (Q8NI35 547-651): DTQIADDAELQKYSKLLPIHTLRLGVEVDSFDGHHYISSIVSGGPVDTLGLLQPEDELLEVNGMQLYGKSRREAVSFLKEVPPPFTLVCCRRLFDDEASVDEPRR

APBA2_1, Q99767 = target: T12, APBA2_1, Q99767; conditions: plain residues with an end cap or a label only (N-terminal biotin on a linker: ado-ado)
T12 sequence (Q99767 563-664, limits assumed, looked up): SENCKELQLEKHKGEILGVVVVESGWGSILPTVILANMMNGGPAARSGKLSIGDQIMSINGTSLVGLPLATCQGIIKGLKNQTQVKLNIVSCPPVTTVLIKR

NHERF4_4, Q86UT5 = conditions: plain residues with an end cap or a label only (N-terminal biotin on a linker: ado-ado)
Chain of NHERF4_4, Q86UT5 (Q86UT5 464-550): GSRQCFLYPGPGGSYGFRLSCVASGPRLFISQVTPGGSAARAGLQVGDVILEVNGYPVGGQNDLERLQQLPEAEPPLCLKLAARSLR

PTPN3, P26045 = conditions: plain residues with an end cap or a label only (N-terminal biotin on a linker: ado-ado)
Chain of PTPN3, P26045 (P26045 505-587): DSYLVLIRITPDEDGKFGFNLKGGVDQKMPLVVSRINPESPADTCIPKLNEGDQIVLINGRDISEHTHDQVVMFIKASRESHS

NHERF4_1, Q86UT5-2 = conditions: plain residues with an end cap or a label only (N-terminal biotin on a linker: ado-ado)
Chain of NHERF4_1, Q86UT5-2 (Q86UT5 other isoform, or with tags, fused parts or gaps): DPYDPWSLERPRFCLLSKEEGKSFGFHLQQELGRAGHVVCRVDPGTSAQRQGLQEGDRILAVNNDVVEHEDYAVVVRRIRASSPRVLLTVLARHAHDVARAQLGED

MAGI2_2, Q86UL8 = conditions: plain residues with an end cap or a label only (N-terminal biotin on a linker: ado-ado)
Chain of MAGI2_2, Q86UL8 (Q86UL8 410-522): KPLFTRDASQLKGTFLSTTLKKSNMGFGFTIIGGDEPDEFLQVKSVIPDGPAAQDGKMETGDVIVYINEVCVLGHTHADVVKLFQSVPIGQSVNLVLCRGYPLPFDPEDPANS

NHERF3_3, Q5T2W1 = target: T13, NHERF3_3, Q5T2W1; conditions: plain residues with an end cap or a label only (N-terminal biotin on a linker: ado-ado)
T13 sequence (Q5T2W1 238-333, limits assumed, looked up): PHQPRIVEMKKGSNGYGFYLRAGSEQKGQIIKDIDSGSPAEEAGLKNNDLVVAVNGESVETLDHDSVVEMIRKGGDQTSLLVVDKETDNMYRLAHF

MPDZ_10, O75970 = target: T14, MPDZ_10, O75970; conditions: plain residues with an end cap or a label only (N-terminal biotin on a linker: ado-ado)
T14 sequence (O75970 1624-1722, limits assumed, looked up): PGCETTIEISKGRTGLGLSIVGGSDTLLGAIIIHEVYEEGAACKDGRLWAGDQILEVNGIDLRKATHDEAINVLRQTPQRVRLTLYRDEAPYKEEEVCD

DLG3_3, Q92796 = target: T15, DLG3_3, Q92796; conditions: plain residues with an end cap or a label only (N-terminal biotin on a linker: ado-ado)
T15 sequence (Q92796 374-475, limits assumed, looked up): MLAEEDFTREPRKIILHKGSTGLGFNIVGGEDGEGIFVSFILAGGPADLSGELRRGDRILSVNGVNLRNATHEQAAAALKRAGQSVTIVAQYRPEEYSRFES

MAGI2_4, Q86UL8 = conditions: plain residues with an end cap or a label only (N-terminal biotin on a linker: ado-ado)
Chain of MAGI2_4, Q86UL8 (Q86UL8 772-865): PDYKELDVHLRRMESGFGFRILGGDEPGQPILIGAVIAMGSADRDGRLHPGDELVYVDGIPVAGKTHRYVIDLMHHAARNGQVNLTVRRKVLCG

SNTG1, Q9NSN8 = target: T16, SNTG1, Q9NSN8; conditions: plain residues with an end cap or a label only (N-terminal biotin on a linker: ado-ado)
T16 sequence (Q9NSN8 52-150, limits assumed, looked up): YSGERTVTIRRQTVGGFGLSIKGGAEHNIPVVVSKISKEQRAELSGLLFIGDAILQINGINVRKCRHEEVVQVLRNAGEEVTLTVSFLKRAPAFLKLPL

CASK, O14936 = conditions: plain residues with an end cap or a label only (N-terminal biotin on a linker: ado-ado)
Chain of CASK, O14936 (O14936 487-570): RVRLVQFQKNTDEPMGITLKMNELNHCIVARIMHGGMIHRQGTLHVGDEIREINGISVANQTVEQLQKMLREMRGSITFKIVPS

TJP1_2, Q07157 = conditions: plain residues with an end cap or a label only (N-terminal biotin on a linker: ado-ado)
Chain of TJP1_2, Q07157 (Q07157 181-274): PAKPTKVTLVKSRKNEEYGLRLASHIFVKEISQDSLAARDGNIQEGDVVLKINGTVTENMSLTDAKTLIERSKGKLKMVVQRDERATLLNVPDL

ARHGEF12, Q9NZN5-2 = conditions: plain residues with an end cap or a label only (N-terminal biotin on a linker: ado-ado)
Chain of ARHGEF12, Q9NZN5-2 (Q9NZN5 other isoform, or with tags, fused parts or gaps): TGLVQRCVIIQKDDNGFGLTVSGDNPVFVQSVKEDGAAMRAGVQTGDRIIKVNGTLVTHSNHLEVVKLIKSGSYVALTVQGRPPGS

FRMPD2_1, Q68DX3 = conditions: plain residues with an end cap or a label only (N-terminal biotin on a linker: ado-ado)
Chain of FRMPD2_1, Q68DX3 (Q68DX3 770-861): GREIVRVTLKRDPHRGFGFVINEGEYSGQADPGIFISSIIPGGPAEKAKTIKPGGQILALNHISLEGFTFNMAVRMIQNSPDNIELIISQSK

GRIP2_6, Q9C0E4 = conditions: plain residues with an end cap or a label only (N-terminal biotin on a linker: ado-ado)
Chain of GRIP2_6, Q9C0E4 (Q9C0E4 648-740): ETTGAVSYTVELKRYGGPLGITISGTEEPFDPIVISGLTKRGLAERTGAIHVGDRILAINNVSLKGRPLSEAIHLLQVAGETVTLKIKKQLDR

DLG1_2, Q12959 = conditions: plain residues with an end cap or a label only (N-terminal biotin on a linker: ado-ado)
Chain of DLG1_2, Q12959 (Q12959 314-412): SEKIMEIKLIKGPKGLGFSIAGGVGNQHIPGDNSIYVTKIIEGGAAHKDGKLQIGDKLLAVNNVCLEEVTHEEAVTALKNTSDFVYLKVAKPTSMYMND

GRIP2_5, Q9C0E4 = conditions: plain residues with an end cap or a label only (N-terminal biotin on a linker: ado-ado)
Chain of GRIP2_5, Q9C0E4 (Q9C0E4 544-642): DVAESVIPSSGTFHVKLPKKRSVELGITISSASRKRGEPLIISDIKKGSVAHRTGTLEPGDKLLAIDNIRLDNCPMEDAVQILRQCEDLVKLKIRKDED

DLG4_1, P78352 = conditions: plain residues with an end cap or a label only (N-terminal biotin on a linker: ado-ado)
Chain of DLG4_1, P78352 (P78352 62-152): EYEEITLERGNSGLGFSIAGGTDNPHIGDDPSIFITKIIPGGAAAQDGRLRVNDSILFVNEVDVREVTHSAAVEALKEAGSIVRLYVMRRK

MAGI3_2, Q5TCQ9 = conditions: plain residues with an end cap or a label only (N-terminal biotin on a linker: ado-ado)
Chain of MAGI3_2, Q5TCQ9 (Q5TCQ9 398-503): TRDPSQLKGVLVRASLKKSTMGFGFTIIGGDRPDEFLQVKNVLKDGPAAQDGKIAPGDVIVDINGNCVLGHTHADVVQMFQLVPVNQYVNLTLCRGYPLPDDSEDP

DLG4_2, P78352 = conditions: plain residues with an end cap or a label only (N-terminal biotin on a linker: ado-ado)
Chain of DLG4_2, P78352 (P78352 155-259): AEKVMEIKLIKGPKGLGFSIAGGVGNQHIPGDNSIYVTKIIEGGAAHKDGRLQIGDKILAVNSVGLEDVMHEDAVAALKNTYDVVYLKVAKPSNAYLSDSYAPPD

SHANK1, Q9Y566 = target: T17, SHANK1, Q9Y566; conditions: plain residues with an end cap or a label only (N-terminal biotin on a linker: ado-ado)
T17 sequence (Q9Y566 658-767, limits assumed, looked up): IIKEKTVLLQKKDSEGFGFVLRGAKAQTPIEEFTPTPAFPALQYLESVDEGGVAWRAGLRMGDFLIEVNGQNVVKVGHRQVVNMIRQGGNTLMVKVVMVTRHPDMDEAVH

[1] = plain residues with an end cap or a label only (N-terminal biotin on a linker: ttds)
[2] = plain residues with an end cap or a label only (N-terminal biotin on a linker: ado-ado)

pKd (SYNJ2BP, P57105): 3.8
pKd (ARHGAP21, Q5T5U3): 3.82
pKd (LRRC7, Q96NW7): 3.49
pKd (APBA1_2, Q02410): 3.5
pKd (FRMPD3, Q5JV73): 3.65
pKd (GIPC2, Q8TF65): 3.61
pKd (ARHGEF11, O15085; [1]): 3.69
pKd (GRID2IP_2, A4D2P6): 3.63
pKd (SNTA1, Q13424; [1]): 3.88
pKd (PARD3B_1, Q8TEW8): 3.54
pKd (Inadl_1, Q8NI35): 3.51
pKd (PDZD2_2, O15018): 3.82
Binder: NDPAWDETNL [ARHGEF7, Q14155]

pKd (Inadl_9, Q8NI35): 3.49
pKd (DLG2_2, Q15700): 3.48
pKd (SNX27, Q96L92): 3.8
pKd (DLG1_3, Q12959): 3.69
pKd (TIAM2, Q8IVF5): 3.64
pKd (PDZRN4_1, Q6ZMN7): 3.68
pKd (TJP1_3, Q07157): 3.61
pKd (TX1BP3, O14907): 3.88
pKd (IL16_4, Q14005): 3.65
pKd (MAST2, Q6P0Q8): 3.62
pKd (DLG3_1, Q92796): 3.63
pKd (Inadl_8, Q8NI35): 3.69
pKd (HTRA2, O43464): 3.68
pKd (Inadl_4, Q8NI35): 3.49
pKd (APBA2_1, Q99767): 3.5
pKd (NHERF4_4, Q86UT5): 3.8
pKd (PTPN3, P26045): 3.71
pKd (NHERF4_1, Q86UT5-2): 3.6
pKd (MAGI2_2, Q86UL8): 3.51
pKd (NHERF3_3, Q5T2W1): 3.75
pKd (MPDZ_10, O75970): 3.48
pKd (DLG3_3, Q92796): 3.81
pKd (MAGI2_4, Q86UL8): 3.55
pKd (SNTG1, Q9NSN8): 3.5
pKd (CASK, O14936): 3.48
pKd (ARHGEF11, O15085; [2]): 3.89
pKd (TJP1_2, Q07157): 3.88
pKd (ARHGEF12, Q9NZN5-2): 3.68
pKd (FRMPD2_1, Q68DX3): 3.47
pKd (SNTA1, Q13424; [2]): 3.49
pKd (GRIP2_6, Q9C0E4): 3.55
pKd (DLG1_2, Q12959): 3.67
pKd (GRIP2_5, Q9C0E4): 3.59
pKd (DLG4_1, P78352): 3.56
pKd (MAGI3_2, Q5TCQ9): 3.5
pKd (DLG4_2, P78352): 3.79
pKd (SHANK1, Q9Y566): 3.52
Binder: KSGKQTMLVV [TRIM29, Q14134]
